Reference: patent publication US20150196663A1

Molecular target: rat transferrin receptor (rat) (UniProt Q99376)
Experiment: cell-based or functional assay

UniProt Q99376, sequence (Q99376 whole entry): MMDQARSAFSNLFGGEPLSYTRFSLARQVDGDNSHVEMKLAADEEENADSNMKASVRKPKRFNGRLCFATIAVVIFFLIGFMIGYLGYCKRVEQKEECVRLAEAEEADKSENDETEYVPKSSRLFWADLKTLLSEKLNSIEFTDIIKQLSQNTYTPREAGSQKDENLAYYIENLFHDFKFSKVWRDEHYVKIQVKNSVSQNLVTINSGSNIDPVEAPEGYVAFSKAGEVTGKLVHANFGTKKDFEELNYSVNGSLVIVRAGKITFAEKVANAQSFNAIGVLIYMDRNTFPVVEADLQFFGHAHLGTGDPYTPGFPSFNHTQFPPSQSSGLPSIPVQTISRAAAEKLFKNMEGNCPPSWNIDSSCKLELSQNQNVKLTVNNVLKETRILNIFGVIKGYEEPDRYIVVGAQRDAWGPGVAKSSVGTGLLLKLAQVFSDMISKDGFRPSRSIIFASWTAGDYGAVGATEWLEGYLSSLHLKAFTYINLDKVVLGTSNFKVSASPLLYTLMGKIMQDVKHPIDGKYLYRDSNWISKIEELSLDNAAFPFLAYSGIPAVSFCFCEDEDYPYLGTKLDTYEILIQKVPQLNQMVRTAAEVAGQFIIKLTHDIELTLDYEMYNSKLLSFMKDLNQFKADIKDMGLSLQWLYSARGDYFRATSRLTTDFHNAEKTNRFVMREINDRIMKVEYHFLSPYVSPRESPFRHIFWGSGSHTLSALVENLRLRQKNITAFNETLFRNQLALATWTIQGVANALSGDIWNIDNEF

OX-26, positive control antibody against the rat transferrin receptor (AbD Serotec, # MCA155G)
percentage of RBE4 cells exhibiting multiple internalized vesicles per cell: 92%
percentage of primary BMECs exhibiting multiple internalized vesicles per cell: 46%
